Earlier results, collected in paper PMC2751630.

Tests used:
PKA RIIβ (Homo sapiens) = PKA RIIβ (Homo sapiens) (UniProt P31323)
PKA RI (Homo sapiens) = PKA RI (Homo sapiens) (UniProt P10644)
PKA RIIα (Homo sapiens) = PKA RIIα (Homo sapiens) (UniProt P13861)
Sequence of PKA RIIα (Homo sapiens) (P13861 2-404): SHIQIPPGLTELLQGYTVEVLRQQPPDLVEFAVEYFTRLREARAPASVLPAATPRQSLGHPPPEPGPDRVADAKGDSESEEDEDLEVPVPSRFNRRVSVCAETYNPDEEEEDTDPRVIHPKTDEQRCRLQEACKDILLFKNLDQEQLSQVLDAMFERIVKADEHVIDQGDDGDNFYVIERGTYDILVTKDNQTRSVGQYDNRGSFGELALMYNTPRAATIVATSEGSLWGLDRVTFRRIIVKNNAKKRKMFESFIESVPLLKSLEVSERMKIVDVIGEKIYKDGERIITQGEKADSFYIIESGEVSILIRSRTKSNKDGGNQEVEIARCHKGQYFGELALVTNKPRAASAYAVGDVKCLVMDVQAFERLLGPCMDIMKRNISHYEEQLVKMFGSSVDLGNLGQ

Sequence of AKAP79 (P24588 whole entry): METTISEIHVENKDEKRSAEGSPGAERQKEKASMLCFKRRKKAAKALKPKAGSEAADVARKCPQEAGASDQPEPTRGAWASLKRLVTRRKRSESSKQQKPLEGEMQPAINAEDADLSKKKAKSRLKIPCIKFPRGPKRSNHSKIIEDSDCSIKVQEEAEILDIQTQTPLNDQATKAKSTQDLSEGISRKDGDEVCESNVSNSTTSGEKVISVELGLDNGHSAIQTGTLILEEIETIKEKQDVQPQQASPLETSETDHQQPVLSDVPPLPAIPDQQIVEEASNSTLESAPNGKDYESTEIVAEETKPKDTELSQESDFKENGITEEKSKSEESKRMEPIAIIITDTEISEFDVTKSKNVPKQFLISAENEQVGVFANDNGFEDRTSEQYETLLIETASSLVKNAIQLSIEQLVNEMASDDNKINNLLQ
Sequence of PKA RIIβ (Homo sapiens) (P31323 whole entry): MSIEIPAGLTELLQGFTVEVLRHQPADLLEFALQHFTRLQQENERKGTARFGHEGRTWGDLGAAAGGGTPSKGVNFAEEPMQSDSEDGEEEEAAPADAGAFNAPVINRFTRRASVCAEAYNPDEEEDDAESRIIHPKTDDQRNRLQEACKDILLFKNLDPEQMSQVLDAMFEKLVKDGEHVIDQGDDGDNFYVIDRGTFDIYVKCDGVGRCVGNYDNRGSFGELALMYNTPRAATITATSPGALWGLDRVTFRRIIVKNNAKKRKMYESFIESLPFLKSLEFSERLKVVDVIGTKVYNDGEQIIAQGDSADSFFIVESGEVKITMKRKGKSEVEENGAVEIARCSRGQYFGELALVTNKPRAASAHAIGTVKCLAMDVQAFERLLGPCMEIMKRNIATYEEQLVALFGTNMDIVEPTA
Sequence of PKA RI (Homo sapiens) (P10644 whole entry): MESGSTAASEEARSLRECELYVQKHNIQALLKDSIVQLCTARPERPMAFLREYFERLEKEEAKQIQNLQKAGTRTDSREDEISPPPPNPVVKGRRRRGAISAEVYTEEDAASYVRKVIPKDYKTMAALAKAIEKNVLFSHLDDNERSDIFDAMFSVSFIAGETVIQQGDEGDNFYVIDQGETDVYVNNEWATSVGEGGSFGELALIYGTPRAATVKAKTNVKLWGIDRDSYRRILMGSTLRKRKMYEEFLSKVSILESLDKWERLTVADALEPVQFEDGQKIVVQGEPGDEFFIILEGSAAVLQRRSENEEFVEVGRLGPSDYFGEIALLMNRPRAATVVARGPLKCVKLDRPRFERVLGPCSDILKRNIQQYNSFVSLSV

- Kd (PKA RIIβ (Homo sapiens)): 4.5 nM
- Kd (PKA RI (Homo sapiens)): > 1000 nM
- Kd (PKA RIIα (Homo sapiens)): 1.5 nM
Substance: AKAP79 (from UniProt P24588)
